Assays:
[1] = target: T1, human CD71 extracellular domain (human, UniProt P02786 89-760); assay: primary ELISA; also: test concentration or dose not given here
T1 construct: also called hCD71; human CD71-ECD

[2] = target: T2, apical domain of cynomolgus CD71 (cynomolgus, UniProt A0A2K5X958 189-383); assay: primary ELISA; also: test concentration or dose not given here
T2 construct: domain: apical domain; also called Cyno apical domain

[3] = target: T1, human CD71 extracellular domain; assay: primary ELISA, signal ratio to HSA
[4] = target: T2, apical domain of cynomolgus CD71; assay: primary ELISA, signal ratio to HSA
[5] = target: T3, human CD71 extracellular domain (human, UniProt P02786 89-760, biotinylated); assay: primary ELISA; also: test concentration or dose not given here
T3 construct: also called hCD71; CD71-ECD
T3 sequence (P02786 89-760): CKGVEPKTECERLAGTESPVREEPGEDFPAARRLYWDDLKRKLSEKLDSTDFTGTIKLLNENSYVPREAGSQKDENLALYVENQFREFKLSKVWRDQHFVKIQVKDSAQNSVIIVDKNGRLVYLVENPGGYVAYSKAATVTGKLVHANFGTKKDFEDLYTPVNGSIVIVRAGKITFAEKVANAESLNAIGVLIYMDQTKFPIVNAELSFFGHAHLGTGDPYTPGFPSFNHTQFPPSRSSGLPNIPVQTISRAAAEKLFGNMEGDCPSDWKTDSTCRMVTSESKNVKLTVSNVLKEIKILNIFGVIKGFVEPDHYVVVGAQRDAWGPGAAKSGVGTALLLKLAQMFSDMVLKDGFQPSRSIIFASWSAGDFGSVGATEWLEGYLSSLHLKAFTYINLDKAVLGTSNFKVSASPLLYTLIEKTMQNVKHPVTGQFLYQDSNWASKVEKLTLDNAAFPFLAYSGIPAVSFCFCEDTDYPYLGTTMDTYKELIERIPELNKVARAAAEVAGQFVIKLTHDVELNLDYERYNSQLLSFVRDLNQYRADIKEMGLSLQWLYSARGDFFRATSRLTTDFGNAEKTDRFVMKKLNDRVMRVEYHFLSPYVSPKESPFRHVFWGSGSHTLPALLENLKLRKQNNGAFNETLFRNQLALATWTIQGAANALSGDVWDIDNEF

[6] = target: T4, apical domain of human CD71 (human, UniProt P02786 189-383, limits assumed); assay: primary ELISA; also: test concentration or dose not given here
T4 construct: domain: apical domain; Screen 4 panned on human apical domains, the ELISA text says only 'apical domain'
T4 sequence (P02786 189-383 limits assumed): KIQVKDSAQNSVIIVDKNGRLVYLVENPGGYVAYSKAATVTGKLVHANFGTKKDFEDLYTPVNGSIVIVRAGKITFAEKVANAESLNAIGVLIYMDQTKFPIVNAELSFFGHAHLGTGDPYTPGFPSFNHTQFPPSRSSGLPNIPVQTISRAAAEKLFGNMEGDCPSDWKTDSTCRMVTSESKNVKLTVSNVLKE

[7] = target: T3, human CD71 extracellular domain; assay: primary ELISA, RLU over HSA
[8] = target: T4, apical domain of human CD71; assay: primary ELISA, RLU over HSA

T1 sequence (P02786 89-760): as the sequence (P02786 89-760) above
T2 sequence (A0A2K5X958 entry or part of it): as the sequence (P02786 189-383 limits assumed) above, with R20G, Y59D, T60S, N104K, E106D, R137Q, R176K, S182N, N184S counted along it

B1: CD71-binding FN3 domain of SEQ ID NO: 119 (designed binder)
chain: MSLPAPKNLVVSRVTEDSARLSWTAPDAAFDSFFIGYLEPQPPGEAIELYVPGSERSYDLTGLKPGTEYNVTIQGVKGGFPSDPLVAFFTT
RLU [1]: 7.04e+06 RLU
RLU [2]: 6.29e+06 RLU
hCD71:HSA [3]: 441
Cyno apical domain:HSA [4]: 394

B2: CD71-binding FN3 domain of SEQ ID NO: 120 (designed binder)
chain: MSLPAPKNLVVSRVTEDSARLSWTAPDAAFDSFEIAYQELSLWGEAIVLTVPGSERSYDLTGLKPGTEYWVQIGGVKGGEWSAPLSAIFTT
RLU [1]: 4.26e+06 RLU
RLU [2]: 5.13e+06 RLU
hCD71:HSA [3]: 443
Cyno apical domain:HSA [4]: 534

B3: CD71-binding FN3 domain of SEQ ID NO: 122 (designed binder)
chain: MSLPAPKNLVVSRVTEDSARPSWTAPDAAFDSFEIGYFENLYLGEAIVLTVPGSERSYDLTGLKPGTEYYVHIGGVKGGIWSSPLSAYFTT
RLU [1]: 5.5e+06 RLU
RLU [2]: 4.2e+06 RLU
hCD71:HSA [3]: 105
Cyno apical domain:HSA [4]: 80

B4: CD71-binding FN3 domain of SEQ ID NO: 124 (designed binder)
chain: MSLPAPKNLVVSRVIEDSARLSWTAPDAAFDSFEIGYFENLYLGEAIVLTVPGSERSYDLTGLKPGTEYWVQIGGVKGGNWSAPLSAIFTT
RLU [1]: 5.01e+06 RLU
RLU [2]: 4.89e+06 RLU
hCD71:HSA [3]: 43
Cyno apical domain:HSA [4]: 42

B5: CD71-binding FN3 domain of SEQ ID NO: 126 (designed binder)
chain: MSLPAPKNLVVSRVTEDSARLSWTAPDAVFDSFEIAYQELSLWGEAIVLTVPGSERSYDLTGLKPGTEYYVHIGGVKGGIWSSPLSAYFTT
RLU [1]: 3.13e+06 RLU
RLU [2]: 5.27e+06 RLU
hCD71:HSA [3]: 227
Cyno apical domain:HSA [4]: 382

B6: CD71-binding FN3 domain of SEQ ID NO: 130 (designed binder)
chain: MSLPAPKNLVVSRVTEDSARLSWTAPDAAFDSFEIAYFERTWFGEAIVLTVPGSERSYDLTGLKPGTEYWVQIGGVKGGDWSAPLSAIFTT
RLU [1]: 3.76e+06 RLU
RLU [2]: 5e+06 RLU
hCD71:HSA [3]: 147
Cyno apical domain:HSA [4]: 196

B7: CD71-binding FN3 domain of SEQ ID NO: 131 (designed binder)
chain: MSLPAPKNLVVSRVTEDSARLSWTAPDAAFDSFEIAYFENDWAGEAIVLTVPGSERSYDLTGLKPGTEYVVFIGGVKGGDFSPPLSAIFTT
RLU [1]: 3.35e+06 RLU
RLU [2]: 4.81e+06 RLU
hCD71:HSA [3]: 101
Cyno apical domain:HSA [4]: 145

B8: CD71-binding FN3 domain of SEQ ID NO: 132 (designed binder)
chain: MSLPAPKNLVVSRVTEDSARLSWTAPDAAFDSFEIGYFENLYLGEAIVLTVPGSERSYDLTGLKPGTEYWVQIGGVKGVNWSAPLSAIFTT
RLU [1]: 3.63e+06 RLU
RLU [2]: 5.15e+06 RLU
hCD71:HSA [3]: 142
Cyno apical domain:HSA [4]: 201

B9: CD71-binding FN3 domain of SEQ ID NO: 139 (designed binder)
chain: MSLPAPKNLVVSRVTEDSARLSWTAPDAAFDSFEIGYFENLYLGEAIVLTVPGSERSYDLTGLKPGTEYWVQIGGVKGGAYSTPLSAIFTT
RLU [1]: 3.7e+06 RLU
RLU [2]: 4.49e+06 RLU
hCD71:HSA [3]: 409
Cyno apical domain:HSA [4]: 496

B10: CD71-binding FN3 domain of SEQ ID NO: 141 (designed binder)
chain: MSLPAPKNLVVSRVTEDSARLSWTAPDAAFDSFEIGYFENLYLGEAIVLTVPGSERSYDLTGLKPGTEYWVQIGGVKGGNWSAPLSAYFTT
RLU [1]: 4.22e+06 RLU
RLU [2]: 5.4e+06 RLU
hCD71:HSA [3]: 192
Cyno apical domain:HSA [4]: 245

B11: CD71-binding FN3 domain of SEQ ID NO: 144 (designed binder)
chain: MSLPAPKNLVVSRVTEDSARLSWTAPDAAFDSFEIGYFENLYLGEAIVLTVPGSERSYDLTSLKPGTEYWVQIGGVKGGNWSAPLSATFTT
RLU [1]: 4.74e+06 RLU
RLU [2]: 5.3e+06 RLU
hCD71:HSA [3]: 134
Cyno apical domain:HSA [4]: 150

B12: CD71-binding FN3 domain of SEQ ID NO: 146 (designed binder)
chain: MSLPAPKNLVVSRVTEDSARLSWTAPDAAFDSFDIGYFENTYEGEAIVLTVPGSERSYDLTGLKPGTEYVVWIGGVKGGSYSSPLSAIFTT
RLU [1]: 4.34e+06 RLU
RLU [2]: 4.96e+06 RLU
hCD71:HSA [3]: 112
Cyno apical domain:HSA [4]: 128

B13: CD71-binding FN3 domain of SEQ ID NO: 148 (designed binder)
chain: MSLPAPKNLVVSRVTEDSARLSWTAPDAAFDSFEIVYQENSAYGEAIVLTVPGSERSYDLTGLKPGTEYWVQIGGVKGGEWSAPLSAIFTT
RLU [1]: 2.45e+06 RLU
RLU [2]: 4.72e+06 RLU
hCD71:HSA [3]: 212
Cyno apical domain:HSA [4]: 408

B14: CD71-binding FN3 domain of SEQ ID NO: 149 (designed binder)
chain: MSLPAPKNLVVSRVTEDSARLSWTAPDAAFDSFDIGYFELRYYGEAIVLTVPGSERSYDLTGLKPGTEYWVSIGGVKGGTYSAPLSAIFTT
RLU [1]: 3.77e+06 RLU
RLU [2]: 5e+06 RLU
hCD71:HSA [3]: 342
Cyno apical domain:HSA [4]: 455

B15: CD71-binding FN3 domain of SEQ ID NO: 150 (designed binder)
chain: MSLPAPKNLVVSRVTEDSARLSWTAPDAAFDSFDIGYFENSYAGEAIVLTVPGSERSYDLTGLKPGTEYYVSIAGVKGGRFSPPLSAIFTT
RLU [1]: 3.49e+06 RLU
RLU [2]: 4.18e+06 RLU
hCD71:HSA [3]: 98
Cyno apical domain:HSA [4]: 118

B16: CD71-binding FN3 domain of SEQ ID NO: 151 (designed binder)
chain: MSLPAPKNLVVSRITEDSARLSWTAPDAAFDSFEIAYFETCRTGEAIVLTVPGSERSYDLTGLKPGTEYRVWIGGVKGGVWSRPLSAIVTT
RLU [1]: 4.04e+06 RLU
RLU [2]: 5.1e+06 RLU
hCD71:HSA [3]: 22
Cyno apical domain:HSA [4]: 28

B17: CD71-binding FN3 domain of SEQ ID NO: 152 (designed binder)
chain: MSLPAPKNLVVSRVTEDSARLSWTAPDAAFDSFDIGYFEATYYGEAIVLTVPGSERSYDLTGLKPGTEYWVQIGGVKGGNWSAPLSAIFTT
RLU [1]: 2.36e+06 RLU
RLU [2]: 4.21e+06 RLU
hCD71:HSA [3]: 164
Cyno apical domain:HSA [4]: 291

B18: CD71-binding FN3 domain of SEQ ID NO: 489 (designed binder)
chain: MLAPKNLVVSRVTEDSARLSWTAPDAAFDSFFIGYLEPQPPGEAISLLVPGSERSYDLTGLKPGTEYNVTIQGVKGGFPSSPLLAGFTT
RLU [5]: 2.81e+06 RLU
RLU [6]: 4.06e+06 RLU
hCD71:HSA [7]: 235
Apical domain:HSA [8]: 340

B19: CD71-binding FN3 domain of SEQ ID NO: 495 (designed binder)
chain: MLPAPKNLVVSRVTEDSARLSWTAPDAAFDSFFINYREDKWIGEAIVLTVPGSERSYDLTGLKPGTEYSVPIDGVKGGAASPPLSAIFTT
RLU [5]: 1.14e+06 RLU
RLU [6]: 4.03e+06 RLU
hCD71:HSA [7]: 142
Apical domain:HSA [8]: 504

B20: CD71-binding FN3 domain of SEQ ID NO: 509 (designed binder)
chain: MLPAPKNLVVSRVTEDSARLSWTAPDAAFDSFEIGYWENAYKGEAIVLTVPGSERSYDLTGLKPGTEYEVFIGGVKGGVWSVPLSAIFTT
RLU [5]: 1.74e+06 RLU
RLU [6]: 4.6e+06 RLU
hCD71:HSA [7]: 134
Apical domain:HSA [8]: 353

B21: CD71-binding FN3 domain of SEQ ID NO: 503 (designed binder)
chain: MLPAPKNLVVSRVTEDSARLSWTAPDAAFDSFEISYFETSWHGEAIVLTVLGSERSYDLTGLKPGTEYRVYIGGVKGGSWSQPLSAIFTT
RLU [5]: 2.35e+06 RLU
RLU [6]: 2.26e+06 RLU
hCD71:HSA [7]: 150
Apical domain:HSA [8]: 145

B22: CD71-binding FN3 domain of SEQ ID NO: 506 (designed binder)
chain: MLPAPKNLVVSRVTEDSARLSWTAPDAAFDSFEIGYWENAYKGEAIVLTVPGSERSYDLTGLKPGTEYVVFIGGVKGGVWSVPLSAISTT
RLU [5]: 1.64e+06 RLU
RLU [6]: 4.74e+06 RLU
hCD71:HSA [7]: 39
Apical domain:HSA [8]: 112

B23: CD71-binding FN3 domain of SEQ ID NO: 531 (designed binder)
chain: MLPAPKNLVVSRVTEDSARLSWTAPDAAFDSFEIGYFEYSYYGEAIVLTVPGSERSYDLTGLKPGTEYRVYIGGVKGGGWSRPLSAIFTT
RLU [5]: 1.6e+06 RLU
RLU [6]: 4.16e+06 RLU
hCD71:HSA [7]: 226
Apical domain:HSA [8]: 586

B24: CD71-binding FN3 domain of SEQ ID NO: 537 (designed binder)
chain: MLPAPKNLVVSRVTEDSARLSWTAPDAAFDSFEIGYFENLYLGEAIVLTVPGSERSYDLTGLKPGTEYWVQIGGVKGGNWSAPLSAIFTT
RLU [5]: 2.42e+06 RLU
RLU [6]: 5.14e+06 RLU
hCD71:HSA [7]: 23
Apical domain:HSA [8]: 50

B25: CD71-binding FN3 domain of SEQ ID NO: 510 (designed binder)
chain: MLPAPKNLVVSRVTEDSARLSWTAPDAAFDSFFIAYGESPESGEAIVLTVPGSERSYDLTGLKPGTEYLVWIAGVKGGYYSDPLSAIFTT
RLU [5]: 3.39e+06 RLU
RLU [6]: 5.21e+06 RLU
hCD71:HSA [7]: 263
Apical domain:HSA [8]: 404

B26: CD71-binding FN3 domain of SEQ ID NO: 519 (designed binder)
chain: MLPAPKNLVVSRVTEDSARLSWTAPDAAFDSFPIAYPEHLPPGEAIVLTVPGSERSYDLTGLKPGTEYPVNIRGVKGGFVSFPLSAIFTT
RLU [5]: 3.24e+06 RLU
RLU [6]: 5.24e+06 RLU
hCD71:HSA [7]: 156
Apical domain:HSA [8]: 253

B27: CD71-binding FN3 domain of SEQ ID NO: 532 (designed binder)
chain: MLPAPKNLVVSRVTEDSARLSWTAPDAAFDSFDINYDELSGEGEAIALFVPGSERSYDLTGLKPGTEYWVSIGGVKGGRFSEPLYARFTT
RLU [5]: 1.45e+06 RLU
RLU [6]: 4.59e+06 RLU
hCD71:HSA [7]: 62
Apical domain:HSA [8]: 197

B28: CD71-binding FN3 domain of SEQ ID NO: 536 (designed binder)
chain: MLPAPKNLVVSRVTEDSARLSWTAPDAAFDSFDIGYTETVSFGEAIVLTVPGSERSYDLTGLKPGTEYIVKILGVKGGFASFPLSAIFTT
RLU [5]: 2.99e+06 RLU
RLU [6]: 3.26e+06 RLU
hCD71:HSA [7]: 141
Apical domain:HSA [8]: 154
